8 molecules from patent US20240392002A1 (EXELIXIS, published 2024) can be followed below.

Substitutions are numbered along the chain they refer to. Names may count otherwise.

For one experiment, the target named is ROR1 on tumor cell lines (human, UniProt Q01973 30-937). The experiment is described as follows: cell-based or functional assay.
The target of a further experiment is T1, CTLA4 (UniProt P16410 36-161, limits assumed).
T1 sequence (looked up): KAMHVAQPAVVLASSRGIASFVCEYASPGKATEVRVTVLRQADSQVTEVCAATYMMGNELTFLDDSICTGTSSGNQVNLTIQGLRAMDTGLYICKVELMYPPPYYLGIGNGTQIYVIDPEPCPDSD
The experiment is described as follows: Octet; antigen immobilized, B-Body as analyte. The text has this:
In each instance, the antigen is immobilized and the B-Body is the analyte.
Background: In BLI a coated tip is dipped into the sample, and binding shifts an interference pattern.

The target in experiment [1] is T2, extracellular domain of human ROR1 (human, UniProt Q01973 30-406).
T2 construct: bought protein; biotinylated in the bivalent assay format; also called Acro Cat. No. RO1-H522y
T2 sequence (Q01973 30-406 limits assumed): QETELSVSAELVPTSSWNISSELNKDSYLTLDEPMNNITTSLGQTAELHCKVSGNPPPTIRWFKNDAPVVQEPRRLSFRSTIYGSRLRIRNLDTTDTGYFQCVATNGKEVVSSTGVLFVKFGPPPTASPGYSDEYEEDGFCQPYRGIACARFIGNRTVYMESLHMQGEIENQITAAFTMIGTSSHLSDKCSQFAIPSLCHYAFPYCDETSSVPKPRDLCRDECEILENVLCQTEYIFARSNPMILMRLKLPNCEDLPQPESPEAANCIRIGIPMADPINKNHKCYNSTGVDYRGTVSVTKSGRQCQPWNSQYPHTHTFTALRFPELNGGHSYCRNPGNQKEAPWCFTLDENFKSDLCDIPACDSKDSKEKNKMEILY
The experiment is described as follows: BLI, monovalent format, IgG on Fc biosensor.

Experiment [2] addresses T2, extracellular domain of human ROR1. The experiment is described as follows: BLI (Octet), IgG1, two-fold serial dilution 200-12.5 nM. An excerpt:
To measure binding affinity in ROR binder discovery campaigns, the VL and VH domains identified in the phage screen described above were formatted into a bivalent monospecific native human full-length IgG1 architecture and immobilized to a biosensor on an Octet (Pall ForteBio) biolayer interferometer. Soluble ROR antigens, including the extracellular domains of ROR1 (Acro Cat. No. RO1-H522γ) and ROR2 (Acro Cat. No. R02-H52E5), as well as the individual ROR1 Frizzled (Acro Cat. No. RO1-H5222), Ig-like (Acro Cat. No. RO1-H5221), and Kringle (Acro Cat. No. RO1-H5223) domains, were then added to the system and binding measured.
The VH and VL sequences above were formatted into a bivalent monospecific native human full-length IgG1 architecture.

For experiment [3] the target is unchanged. The experiment is described as follows: BLI (Octet QK384), monovalent format: antibody captured on Fc biosensor, untagged antigen as analyte.
The target of experiment [4] is T3, extracellular domain of human ROR2 (human, UniProt Q01974 34-403).
T3 construct: bought protein; biotinylated in the bivalent assay format; also called Acro Cat. No. RO2-H52E5
T3 sequence (Q01974 34-403 limits assumed): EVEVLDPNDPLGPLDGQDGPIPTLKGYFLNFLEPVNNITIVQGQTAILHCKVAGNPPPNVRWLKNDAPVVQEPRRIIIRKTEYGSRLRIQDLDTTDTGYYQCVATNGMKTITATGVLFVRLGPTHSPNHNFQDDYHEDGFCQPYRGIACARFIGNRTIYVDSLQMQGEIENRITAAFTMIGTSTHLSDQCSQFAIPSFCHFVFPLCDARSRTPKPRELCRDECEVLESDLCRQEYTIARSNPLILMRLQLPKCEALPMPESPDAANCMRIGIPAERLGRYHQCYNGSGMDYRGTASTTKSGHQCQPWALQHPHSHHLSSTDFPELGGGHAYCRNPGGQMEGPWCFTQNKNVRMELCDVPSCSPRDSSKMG
The experiment is described as follows: BLI, IgG1 on biosensor, soluble ROR ectodomain.

The target of experiment [5] is T3, extracellular domain of human ROR2. The experiment is described as follows: BLI, monovalent format. The method, then: (§1) More specifically, monovalent binding affinity analysis was performed using the Octet^QK 384 (ForteBio) using Fc biosensors. Unlabeled B-body™ is first bound to the Fc biosensor at a concentration to yield approximately 1 nm response (typically 10 to 50 nM protein). The biosensors are then equilibrated in 10× Kinetic Buffer (ForteBio) to establish a baseline. The untagged monomer of each antigen is contacted with the antibody-coated sensors at concentrations ranging from 50 nm to 0.75 nM. The association response and dissociation were monitored and recorded. The resulting Kₒₙ and Koff was fit using the Octet analysis software.
(§2) Next, the binding of the antibody to ROR1 and ROR2 was assessed using the monovalent and bivalent BLI binding assessments as described in Example 24.

In experiment [6] the target is T2, extracellular domain of human ROR1. The experiment is described as follows: BLI, monovalent format. The method, then:
as §1, §2

Experiment [7] has as its target T3, extracellular domain of human ROR2. The experiment is described as follows: BLI (Octet QK384), monovalent format: antibody captured on Fc biosensor, untagged antigen as analyte. As to the method: as §1, §2
The target in experiment [8] is T2, extracellular domain of human ROR1. Described as above. As to the method:
as §1, §2
The source holds these as a separate data set.

The target in experiment [9] is T4, CD3 on a cynomolgus T cell line (cynomolgus).
T4 construct: whole, on cells; also called cynomolgus CD3
T4 sequence (Q95LI5 22-198, chain 1 of 3): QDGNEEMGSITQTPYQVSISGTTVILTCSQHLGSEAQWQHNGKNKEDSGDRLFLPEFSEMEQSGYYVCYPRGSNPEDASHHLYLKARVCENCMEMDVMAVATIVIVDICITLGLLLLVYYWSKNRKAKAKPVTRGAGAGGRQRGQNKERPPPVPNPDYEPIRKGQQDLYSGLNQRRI
T4 sequence (Q95LI8 22-171, chain 2 of 3, further chain): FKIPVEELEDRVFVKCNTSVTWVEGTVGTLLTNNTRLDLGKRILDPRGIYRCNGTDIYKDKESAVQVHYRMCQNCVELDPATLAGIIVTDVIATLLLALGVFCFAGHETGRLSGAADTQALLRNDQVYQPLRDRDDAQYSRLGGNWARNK
T4 sequence (Q95LI7 23-181, chain 3 of 3, further chain): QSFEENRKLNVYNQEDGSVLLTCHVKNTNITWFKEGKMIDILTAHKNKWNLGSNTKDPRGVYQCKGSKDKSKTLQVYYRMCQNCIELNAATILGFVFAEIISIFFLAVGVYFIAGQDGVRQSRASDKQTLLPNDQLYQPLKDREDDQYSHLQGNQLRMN
The experiment is described as follows: flow cytometry on a cynomolgus T cell line, fluorescently labeled secondary antibody, MFI against antibody concentration. An excerpt:
(§3) In this Example, the binding to human and cynomolgus CD3 was further characterized by assessing cell binding to Jurkat T cells, a Jurkat CD3 knock-out cell line, or a cynomolgus T cell line.
(In general: Flow cytometry measures light scatter and fluorescence of single cells or particles in a stream.)

Another experiment deals with T5, CD3 on Jurkat T cells (human, UniProt P07766 23-207; P04234 22-171).
T5 construct: also called human CD3; copies: 1 + 1
T5 sequence (P07766 23-207 limits assumed, chain 1 of 2): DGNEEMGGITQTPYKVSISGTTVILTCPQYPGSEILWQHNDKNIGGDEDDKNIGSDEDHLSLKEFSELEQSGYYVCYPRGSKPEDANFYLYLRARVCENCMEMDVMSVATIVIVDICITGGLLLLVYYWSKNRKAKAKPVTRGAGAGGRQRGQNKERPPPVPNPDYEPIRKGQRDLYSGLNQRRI
T5 sequence (P04234 22-171 limits assumed, chain 2 of 2): as the sequence (Q95LI8 22-171, chain 2 of 3, further chain) above, with V5I, K15N, V20I, T32S, N33D, N34I, A64T, N74S, L83V, R141H counted along it
The experiment is described as follows: flow cytometry on Jurkat T cells, fluorescently labeled secondary antibody, MFI against antibody concentration.
From the text: as §3

The target of experiment [10] is human CD3 delta and epsilon heterodimer (human, UniProt P07766 23-126; P04234 22-105). The experiment is described as follows: BLI (Octet), two-fold serial dilution 200-12.5 nM of the construct.
Sequence of human CD3 delta and epsilon heterodimer (P07766 23-126, stated change not applied, chain 1 of 2): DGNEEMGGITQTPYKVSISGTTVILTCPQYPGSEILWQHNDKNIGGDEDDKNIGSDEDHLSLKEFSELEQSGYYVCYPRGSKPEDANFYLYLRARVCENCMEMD
Sequence of human CD3 delta and epsilon heterodimer (P04234 22-105, stated change not applied, chain 2 of 2): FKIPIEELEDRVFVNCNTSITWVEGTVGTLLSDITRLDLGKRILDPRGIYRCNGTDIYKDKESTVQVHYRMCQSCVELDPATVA

Sequence of ROR1 on tumor cell lines (Q01973 30-937 limits assumed): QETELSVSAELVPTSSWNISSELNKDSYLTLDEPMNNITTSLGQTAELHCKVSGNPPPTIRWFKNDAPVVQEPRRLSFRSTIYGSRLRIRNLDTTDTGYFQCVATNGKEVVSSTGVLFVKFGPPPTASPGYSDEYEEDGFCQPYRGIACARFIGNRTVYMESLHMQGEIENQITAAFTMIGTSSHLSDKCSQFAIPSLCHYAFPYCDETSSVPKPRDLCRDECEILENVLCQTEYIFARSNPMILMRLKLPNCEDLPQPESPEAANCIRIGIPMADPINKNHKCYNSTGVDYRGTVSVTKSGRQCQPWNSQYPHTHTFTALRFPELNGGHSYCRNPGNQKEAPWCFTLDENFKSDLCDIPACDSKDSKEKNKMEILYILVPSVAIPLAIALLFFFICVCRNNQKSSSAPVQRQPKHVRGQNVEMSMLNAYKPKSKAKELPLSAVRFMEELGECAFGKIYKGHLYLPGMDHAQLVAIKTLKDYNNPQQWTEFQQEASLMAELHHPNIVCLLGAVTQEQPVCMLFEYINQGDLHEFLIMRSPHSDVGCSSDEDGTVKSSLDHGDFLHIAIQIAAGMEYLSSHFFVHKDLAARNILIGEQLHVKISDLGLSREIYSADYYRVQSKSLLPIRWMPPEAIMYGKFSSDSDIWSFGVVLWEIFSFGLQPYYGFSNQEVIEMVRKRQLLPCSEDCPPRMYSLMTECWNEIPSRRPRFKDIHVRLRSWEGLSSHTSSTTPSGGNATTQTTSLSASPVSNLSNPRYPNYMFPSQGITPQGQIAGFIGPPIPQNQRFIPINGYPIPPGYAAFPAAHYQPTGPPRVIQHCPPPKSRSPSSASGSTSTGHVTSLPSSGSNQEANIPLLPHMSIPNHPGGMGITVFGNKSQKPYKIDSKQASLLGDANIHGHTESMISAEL

B1: I2A-10 BC1 1×2 B-body (I2A-10 x SP34-89) (bispecific antibody)
chain 1: not shown
chain 2: EVQLVESGGGLVQPGGSLRLSCAASGFTFSSYFIHWVRQAPGKGLEWVAGIYPSDGYTSYADSVKGRFTISADTSKNTAYLQMNSLRAEDTAVYYCARYYSGMDYWGQGTLVTVSSASPREPQVYTDPPSRDELTKNQVSLTCLVKGFYPSDIAVEWESNGQPENNYKTTPPVLDSDGSFFLYSKLTVDKSRWQQGNVFSCSVMHEALHNHYTQKSLSLSGEC
chain 3: DIQMTQSPSSLSASVGDRVTITCRASQSVSSAVAWYQQKPGKAPKLLIYSASSLYSGVPSRFSGSRSGTDFTLTISSLQPEDFATYYCQQYYYYPGTFGQGTKVEIKRTPREPQVYTLPPSRDELTKNQVSLKCLVKGFYPSDIAVEWESNGQPENNYKTTPPVLDSDGSFFLYSKLTVDKSRWQQGNVFSCSVMHEALHNHYTQKSLSLSKSCTASSGGSSSGQAVVTQEPSLTVSPGGTVTLTCRSSTGAVTTSNYANWVQQKPGQAPRGLIGGTNKRAPWTPARFSGSLLGGKAALTITGAQAEDEADYYCALWYSNLWVFGGGTKLTVLGRTVAAPSVFIFPPSDEQLKSGTASVVCLLNNFYPREAKVQWKVDNALQSGNSQESVTEQDSKDSTYSLSSTLTLSKADYEKHKVYACEVTHQGLSSPVTKSFNRGECDKTHTCPPCPAPEAAGGPSVFLFPPKPKDTLMISRTPEVTCVVVDVSHEDPEVKFNWYVDGVEVHNAKTKPREEQYNSTYRVVSVLTVLHQDWLNGKEYKCKVSNKALKAPIEKTISKAKGQPREPQVCTLPPSREEMTKNQVSLSCAVKGFYPSDIAVEWESNGQPENNYKTTPPVLDSDGSFFLVSKLTVDKSRWQQGNVFSCSVMHEALHNHYTQKSLSLSPGK
chain 4: EVQLVESGGGLVQPGGSLRLSCAASGFTFNTYAMNWVRQAPGKGLEWVARIRSKYNNYATYYADSVKGRFSISRDDSKNTAYLQMNSLRAEDTAVYYCVRHGNFGNSYVSWFAYWGQGTLVTVSSASTKGPSVFPLAPSSKSTSGGTAALGCLVKDYFPEPVTVSWNSGALTSGVHTFPAVLQSSGLYSLSSVVTVPSSSLGTQTYICNVNHKPSNTKVDKKVEPPKSC
B1: in the experiment with ROR1 on tumor cell lines, the “EC50, CD8+ T cell mediated killing of MDA-MB-231 (LDH)” value stood at 0.013 nM.

B2: I2A-27 BC1 1×2 B-body (I2A-27 x SP34-89), Example 20 (bispecific antibody)
chain 1: not shown
chain 2: EVQLVESGGGLVQPGGSLRLSCAASGFTFKGYYIHWVRQAPGKGLEWVAAIYPYGGSTDYADSVKGRFTISADTSKNTAYLQMNSLRAEDTAVYYCARVYIYGVFDYWGQGTLVTVSSASPREPQVYTDPPSRDELTKNQVSLTCLVKGFYPSDIAVEWESNGQPENNYKTTPPVLDSDGSFFLYSKLTVDKSRWQQGNVFSCSVMHEALHNHYTQKSLSLSGEC
chain 3: B1 chain 3 with Y93S, Y94S, G96R
chain 4: B1 chain 4
In the case of B2, the “EC50, CD8+ T cell mediated killing of MDA-MB-231 (LDH)” value with ROR1 on tumor cell lines stood at 0.0082 nM.

B3: bivalent bispecific B-Body “BC1” (bispecific antibody)
chain 1: not shown
chain 2: EVQLVESGGGLVQPGGSLRLSCAASGFTFSDYDIHWVRQAPGKGLEWVGDITPYDGTTNYADSVKGRFTISADTSKNTAYLQMNSLRAEDTAVYYCARLVGEIATGFDYWGQGTLVTVSSASPREPQVYTDPPSRDELTKNQVSLTCLVKGFYPSDIAVEWESNGQPENNYKTTPPVLDSDGSFFLYSKLTVDKSRWQQGNVFSCSVMHEALHNHYTQKSLSLSGEC
chain 3: not shown
chain 4: QVQLVESGGGVVQPGRSLRLDCKASGITFSNSGMHWVRQAPGKGLEWVAVIWYDGSKRYYADSVKGRFTISRDNSKNTLFLQMNSLRAEDTAVYYCATNDDYWGQGTLVTVSSASTKGPSVFPLAPSSKSTSGGTAALGCLVKDYFPEPVTVSWNSGALTSGVHTFPAVLQSSGLYSLSSVVTVPSSSLGTQTYICNVNHKPSNTKVDKKVEPPKSC
notes: A:F site for Antigen A, H:L site nivolumab variable domains (PD1)
In the case of B3, the binding result in the experiment with CTLA4 was “no binding”.

B4: I2A-27 IgG1 (antibody, V domains shown)
VH: EVQLVESGGGLVQPGGSLRLSCAASGFTFKGYYIHWVRQAPGKGLEWVAAIYPYGGSTDYADSVKGRFTISADTSKNTAYLQMNSLRAEDTAVYYCARVYIYGVFDYWGQGTLVTVSS
VL: DIQMTQSPSSLSASVGDRVTITCRASQSVSSAVAWYQQKPGKAPKLLIYSASSLYSGVPSRFSGSRSGTDFTLTISSLQPEDFATYYCQQYYSSPRTFGQGTKVEIKR
notes: bivalent monospecific native human full-length IgG1; the Domain F / Domain A entries end with AS / RT of the junction to the constant domain; also called clone I2-A27; I2-A27 IgG antibody
By Kd is commonly meant the free concentration of one partner at which half of the binding sites on the other are occupied at equilibrium, for simple one-to-one binding. A high value points to weaker binding. Usually koff stands for a measure of how fast the partners let go of each other. A lower koff goes with slow dissociation. Broadly, the kon is a measure of how fast the partners come together. Low readings indicate slow association, high ones fast association. With B4, the results for the Kd in [1] and in experiment [2] were 2.8 nM and 4.1 nM, respectively. Further, the values for the koff in experiment [2] and in experiment [3] were 0.00185 s⁻¹ and 0.0026 s⁻¹, respectively. The kon in experiment [2] is 511000 M⁻¹ s⁻¹; in [3], 940000 M⁻¹ s⁻¹.

B5: I2A-10 IgG1 (antibody, V domains shown)
VH: EVQLVESGGGLVQPGGSLRLSCAASGFTFSSYFIHWVRQAPGKGLEWVAGIYPSDGYTSYADSVKGRFTISADTSKNTAYLQMNSLRAEDTAVYYCARYYVSGMDYWGQGTLVTVSS
VL: B4 VL with S93Y, S94Y, R96G
notes: bivalent monospecific native human full-length IgG1; the Domain F / Domain A entries end with AS / RT of the junction to the constant domain; also called clone I2-A10
Consider B5, for which the binding result in experiment [4] is recorded as “binds”. In addition, in experiment [2], the Kd is 0.82 nM, the koff is 0.00038 s⁻¹ and the kon turned out to be 538000 M⁻¹ s⁻¹.

B6: I2A-10 D54E Y55Q IgG (antibody, V domains shown)
VH: B5 VH with D55E
VL: B4 VL with Y55Q, S93Y, S94Y, R96G
notes: bivalent monospecific IgG; the Domain F / Domain A entries end with AS / RT of the junction to the constant domain; also called I2-A10 D54E Y55Q IgG antibody
On to B6, for which the Kd in [5] is below 0.001 nM; in [6], 0.7 nM. Besides, the koff in experiment [7] is below 1e-07 s⁻¹; in [8], 0.00039 s⁻¹. Moreover, the kon in experiment [7] turned out to be 140000 M⁻¹ s⁻¹; in experiment [8], 550000 M⁻¹ s⁻¹.

B7: SP34-89 humanized antibody (antibody, V domains shown)
VH: EVQLVESGGGLVQPGGSLRLSCAASGFTFNTYAMNWVRQAPGKGLEWVARIRSKYNNYATYYADSVKGRFSISRDDSKNTAYLQMNSLRAEDTAVYYCVRHGNFGNSYVSWFAYWGQGTLVTV
VL: QAVVTQEPSLTVSPGGTVTLTCRSSTGAVTTSNYANWVQQKPGQAPRGLIGGTNKRAPWTPARFSGSLLGGKAALTITGAQAEDEADYYCALWYSNLWVFGGGTKLTVL
A word on the EC50 (read off the curve): it is the concentration that produces a half-maximal response. Consider B7, for which the “EC50 (read off the curve)” value in [9] is around 0.7 nM; in the experiment with CD3 on Jurkat T cells it was around 0.6 nM.

B8: non-mutagenized SP34-89 monovalent B-Body (bispecific antibody, V domains shown)
VH: B7 VH
VL: B7 VL
notes: cloned into one arm of a 1×1 BC1 B-Body
Regarding B8, in [10], the equilibrium dissociation constant (Kd) turned out to be 23 nM, the koff was found to be 0.0071 s⁻¹ and the kon came to 300000 M⁻¹ s⁻¹.
